# Data reported in US20200354425A1 (DONG-A ST CO., LTD., published 2020).
# Changes are numbered by the printed parent chain. Read-outs that look alike come from different tables or passages of the source. *1 amine or outer side, *2 acyl side, *3 side chain or, on linkers, in order; H or OH if unused. Bridges are numbered along the chain shown (N, C = ends). Where no end group is shown, it is not given here. Side-chain parts run from the residue outwards. [ ]: non-standard residue; d: D form. The star is where a group is joined. γGlu = O=C(O)[C@H](CCC(=O)[*:2])N[*:1]; Stearoyl = CCCCCCCCCCCCCCCCCC(=O)*; AEEA = NCCOCCOCC(=O)O; Aib = CC(C)(N)C(=O)O
# B1: Compound 37 (peptide)
# peptide: H-H[Aib]QGTFTSDK([AEEA-AEEA-γGlu-Stearoyl])SKYLDDRRAKDFVQWLMNTK-OH
# modifications: bridge 16-20; not fully specified (bridges); printed as H-HAibQGTFTSDZSKYLDDRRAKDFVQWLMNTK-OH
# B2: Compound 16 (peptide)
# peptide: H[Aib]QGTFTSDYSKYLD[Aib]RRAK([AEEA-AEEA-γGlu-Stearoyl])DFVQWLMNTK
# B3: Compound 17 (peptide)
# peptide: HXQGTFTSDXSKYLDXRRAQDFVQWLMNTK
# modifications: Aib at positions 2 and 16; Z at position 10 = Lys([(2-(2-(2-aminoethoxy)ethoxy)acetoyl)]-[gamma glutamicacid]-[octadecanoyl])
# B4: Compound 30 (peptide)
# peptide: B3 peptide with X16E, Q20E
# modifications: Aib at position 2; Z at position 10 = Lys([(2-(2-(2-aminoethoxy)ethoxy)acetoyl)2]-[gamma glutamicacid]-[octadecanoyl]); a ring formed between E and E (positions 16 and 20) via 1,2-ethylenediamino cross-link
# B5: Compound 26 (peptide)
# peptide: H[Aib]QGTFTSDK([AEEA-AEEA-γGlu-Stearoyl])SKYLDDRRAKDFVQWLMNTK
# modifications: lactam 16-20
# B6: Compound 31 (peptide)
# peptide: H[Aib]QGTFTSDK([AEEA-AEEA-γGlu-Stearoyl])SKYLDKRRAKDFVQWLMNTK
# modifications: linker 16-20 via 1,4‑phenylenebiscarbconyl
# B7: Compound 20 (peptide)
# peptide: B3 peptide with X16E, Q20K
# modifications: Aib at position 2; Z at position 10 = Lys([(2-(2-(2-aminoethoxy)ethoxy)acetoyl)3]-[gamma glutamicacid]-[octadecanoyl]); lactam ring formed between E and K (positions 16 and 20)
# B8: Compound 25 (peptide)
# peptide: B3 peptide with X16E, Q20K
# modifications: Aib at position 2; Z at position 10 = Lys([(2-(2-(2-aminoethoxy)ethoxy)acetoyl)4]-[gamma glutamicacid]-[octadecanoyl]); lactam ring formed between E and K (positions 16 and 20)
# B9: Compound 3 (peptide)
# peptide: B3 peptide
# modifications: Aib at positions 2 and 16; Z at position 10 = Lys([(2-(2-(2-aminoethoxy)ethoxy)acetoyl)2]-[gamma glutamicacid]-[octadecanoyl])
# B10: Compound 19 (peptide)
# peptide: B3 peptide with X16E, Q20K
# modifications: Aib at position 2; Z at position 10 = Lys([(2-(2-(2-aminoethoxy)ethoxy)acetoyl)2]-[gamma glutamicacid]-[octadecanoyl]); lactam ring formed between E and K (positions 16 and 20); C-terminal amide (-NH2)
# B11: Compound 23 (peptide)
# peptide: B3 peptide with X16E, Q20E
# modifications: Aib at position 2; Z at position 10 = Lys([(2-(2-(2-aminoethoxy)ethoxy)acetoyl)2]-[gamma glutamicacid]-[octadecanoyl]); a ring formed between E and E (positions 16 and 20) via 1,4-piperazinyl cross-link
# B12: Compound 27 (peptide)
# peptide: H[Aib]QGTFTSDK([AEEA-AEEA-γGlu-Stearoyl])SKYLDKRRADDFVQWLMNTK
# modifications: lactam 16-20
# B13: Compound 29 (peptide)
# peptide: B3 peptide with X16E, Q20E
# modifications: Aib at position 2; Z at position 10 = Lys([(2-(2-(2-aminoethoxy)ethoxy)acetoyl)2]-[gamma glutamicacid]-[octadecanoyl]); a ring formed between E and E (positions 16 and 20) via 1,4-phenylenediamino cross-link
# B14: Compound 36 (peptide)
# peptide: B3 peptide with X16E, Q20K
# modifications: not fully specified; Aib at position 2; Z at position 10 = Lys([(2-(2-(2-aminoethoxy)ethoxy)acetoyl)2]-[gamma glutamicacid]-[octadecanoyl]); a ring formed between E and K (positions 16 and 20) via leucine cross-link
# B15: Compound 15 (peptide)
# peptide: H[Aib]QGTFTSDYSKYLDK([AEEA-AEEA-γGlu-Stearoyl])RRAQDFVQWLMNTK
# B16: Compound 34 (peptide)
# peptide: B3 peptide with X16E, Q20K
# modifications: not fully specified; Aib at position 2; Z at position 10 = Lys([(2-(2-(2-aminoethoxy)ethoxy)acetoyl)2]-[gamma glutamicacid]-[octadecanoyl]); a ring formed between E and K (positions 16 and 20) via 4-aminobenzoyl cross-link
# B17: Compound 33 (peptide)
# peptide: B3 peptide with X16E, Q20K
# modifications: Aib at position 2; Z at position 10 = Lys([(2-(2-(2-aminoethoxy)ethoxy)acetoyl)2]-[gamma glutamicacid]-[octadecanoyl]); a ring formed between E and K (positions 16 and 20) via 1-aminocyclohexan-4-carbonyl cross-link
# B18: Compound 22 (peptide)
# peptide: H[Aib]QGTFTSDK([AEEA-AEEA-γGlu-Stearoyl])SKYLDCRRACDFVQWLMNTK
# modifications: linker 16-20 via 1,3‑phenyhenedimethyl
# B19: Compound 21 (peptide)
# peptide: H[Aib]QGTFTSDK([AEEA-AEEA-γGlu-Stearoyl])SKYLDKRRAEDFVQWLMNTK
# modifications: lactam 16-20
# B20: Compound 35 (peptide)
# peptide: B3 peptide with X16E, Q20K
# modifications: not fully specified; Aib at position 2; Z at position 10 = Lys([(2-(2-(2-aminoethoxy)ethoxy)acetoyl)2]-[gamma glutamicacid]-[octadecanoyl]); a ring formed between E and K (positions 16 and 20) via glycine cross-link
# B21: Compound 38 (peptide)
# peptide: H-H[Aib]QGTFTSDK([AEEA-AEEA-γGlu-Stearoyl])SKYLDDRRAKDFVQWLMNTK-OH
# modifications: bridge 16-20; not fully specified (bridges); printed as H-HAibQGTFTSDZSKYLDDRRAKDFVQWLMNTK-OH
# B22: Compound 32 (peptide)
# peptide: H[Aib]QGTFTSDK([AEEA-AEEA-γGlu-Stearoyl])SKYLDKRRAEDFVQWLMNTK
# modifications: linker 16-20 via 4‑carbonylpiperidin‑1‑yl
# B23: Compound 2 (peptide)
# peptide: H[Aib]QGTFTSDK([AEEA-AEEA-γGlu-Stearoyl])SKYLDSRRAQDFVQWLMNTK
# Tests used:
# Human glucagon receptor [1] = biological target: T1, Human glucagon receptor (human, UniProt P47871)
# Human GLP-1 receptor [2] = biological target: T2, Human GLP-1 receptor (human, UniProt P43220)
# Human glucagon receptor [3] = biological target: T1, Human glucagon receptor; experiment: cell-based or functional assay
# Human GLP-1 receptor [4] = biological target: T2, Human GLP-1 receptor; experiment: cell-based or functional assay
Molecule,"EC50(pM), CRE-driven luciferase activity (Human glucagon receptor [1])","EC50(pM), CRE-driven luciferase activity (Human GLP-1 receptor [2])","EC50(pM), CRE-driven luciferase activity (Human glucagon receptor [3])","EC50(pM), CRE-driven luciferase activity (Human GLP-1 receptor [4])"
MEDI0382 (peptide),10 to 100 pM,< 10 pM,,
B1,,,< 10 pM,< 10 pM
B2,,,< 10 pM,< 10 pM
B3,,,< 10 pM,< 10 pM
B4,,,< 10 pM,< 10 pM
B5,,,< 10 pM,< 10 pM
B6,,,< 10 pM,< 10 pM
B7,,,< 10 pM,< 10 pM
B8,,,< 10 pM,< 10 pM
B9,,,< 10 pM,< 10 pM
B10,,,< 10 pM,< 10 pM
B11,,,< 10 pM,< 10 pM
B12,,,< 10 pM,< 10 pM
B13,,,< 10 pM,< 10 pM
B14,,,< 10 pM,< 10 pM
B15,,,< 10 pM,< 10 pM
B16,,,< 10 pM,< 10 pM
B17,,,< 10 pM,< 10 pM
B18,,,< 10 pM,< 10 pM
B19,,,< 10 pM,< 10 pM
B20,,,< 10 pM,< 10 pM
B21,,,< 10 pM,< 10 pM
B22,,,< 10 pM,< 10 pM
B23,,,< 10 pM,< 10 pM
